Key:
[1] = molecular target: T1, Human MMP-9 catalytic domain (Homo sapiens, UniProt P14780); assay: Biacore 3000 binding to antibody-coated CM5 chip; conditions: 25° C.
T1 construct: Human MMP-9 catalytic domain (BIOMOL, SE-244); purchased BIOMOL SE-244
Method: (§1) Experiments were performed at 25° C. with the help of a Biacore 3000 instrument. The MMP-9 binding protein (M0166F10) and the M0237-D02 antibody were coated to a CM5 chip either via standard amine coupling or using an anti-Fc antibody surface. Then either the active, human MMP-9 catalytic domain (BIOMOL, SE-244), the human pro-MMP-9 (R&D, 911-MP), the human TIMP-1 (R&D, 970-TM) or a h-MMP-9/h-TIMP-1 complex were flowed over the antibody surfaces, and binding was recorded.

[2] = molecular target: T2, human TIMP-1 (Homo sapiens, UniProt P01033); assay: Biacore 3000 binding to antibody-coated CM5 chip; conditions: Direct capture; 25° C.
T2 construct: purchased R&D Systems 970-TM
T2 sequence (P01033 24-207): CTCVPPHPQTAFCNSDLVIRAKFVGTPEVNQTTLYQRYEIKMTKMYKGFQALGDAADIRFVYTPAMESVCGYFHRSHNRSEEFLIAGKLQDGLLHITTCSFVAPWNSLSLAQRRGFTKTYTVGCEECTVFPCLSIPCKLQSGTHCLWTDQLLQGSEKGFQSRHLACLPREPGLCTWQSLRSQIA
Method: as §1

[3] = molecular target: T3, human pro-MMP-9 (Homo sapiens, UniProt P14780); assay: Biacore 3000 binding to antibody-coated CM5 chip; conditions: Direct capture, 25° C.
T3 construct: the human pro-MMP-9 (R&D, 911-MP); purchased R&D Systems 911-MP
T3 sequence (P14780 20-707 limits assumed): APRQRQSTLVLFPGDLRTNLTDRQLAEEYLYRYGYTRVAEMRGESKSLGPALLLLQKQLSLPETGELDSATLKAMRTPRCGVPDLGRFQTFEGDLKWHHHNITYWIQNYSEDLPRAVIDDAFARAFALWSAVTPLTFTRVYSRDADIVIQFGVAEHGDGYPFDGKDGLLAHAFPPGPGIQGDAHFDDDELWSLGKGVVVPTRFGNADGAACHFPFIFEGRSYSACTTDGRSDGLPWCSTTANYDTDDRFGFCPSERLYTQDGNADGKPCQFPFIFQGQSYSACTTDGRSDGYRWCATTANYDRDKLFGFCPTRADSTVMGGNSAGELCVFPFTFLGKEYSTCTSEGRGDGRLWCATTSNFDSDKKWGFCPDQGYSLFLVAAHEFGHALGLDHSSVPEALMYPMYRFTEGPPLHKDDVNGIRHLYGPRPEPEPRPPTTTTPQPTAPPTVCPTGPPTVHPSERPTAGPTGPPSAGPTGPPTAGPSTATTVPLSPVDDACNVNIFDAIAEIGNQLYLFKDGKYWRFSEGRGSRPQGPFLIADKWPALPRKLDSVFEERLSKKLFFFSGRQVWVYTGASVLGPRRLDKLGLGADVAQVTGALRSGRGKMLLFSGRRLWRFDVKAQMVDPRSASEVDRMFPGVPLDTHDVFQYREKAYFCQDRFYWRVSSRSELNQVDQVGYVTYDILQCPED
Method: as §1

[4] = molecular target: T4, human MMP-2 (Homo sapiens, UniProt P08253); assay: Enzyme inhibition assay (single point inhibition, IC50/Ki,app), substrate M-2350; type: biochemical
T4 construct: purchased Biomol SE-237
T4 sequence (P08253 110-446 limits assumed): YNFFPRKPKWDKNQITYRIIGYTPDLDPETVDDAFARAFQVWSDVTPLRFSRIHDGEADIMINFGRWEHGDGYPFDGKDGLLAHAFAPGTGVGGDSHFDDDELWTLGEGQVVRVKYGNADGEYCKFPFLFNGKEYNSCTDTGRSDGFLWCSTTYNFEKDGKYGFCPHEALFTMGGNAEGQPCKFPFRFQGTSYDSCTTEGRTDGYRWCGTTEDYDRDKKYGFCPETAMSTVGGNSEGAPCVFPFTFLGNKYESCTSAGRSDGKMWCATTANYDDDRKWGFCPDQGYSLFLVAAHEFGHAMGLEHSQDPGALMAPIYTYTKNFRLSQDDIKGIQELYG
Method: (§2) 343 unique sFabs from the anti-MMP-9/-2 M237-D02 affinity maturation campaign were discovered by phage display, produced in small scale (6 mL cultures in deep 24-well plates) and screened to select inhibitors with sub-nanomolar potency against the human enzymes and at least single-digit nanomolar potency toward the mouse orthologues. […] Isolates which appeared potent against both human and mouse MMP-2 were then subjected to IC50 analysis against hMMP-9. Sub-nanomolar inhibitors of hMMP-9 were further tested by IC50 analysis against mMMP-9 and h/m MMP-2, if sufficient small-scale sFab material was available. Thirteen potential h/m MMP-9/-2 sFab inhibitors were then produced in medium scale (250 mL cultures in flasks) and retested for h/m MMP-9 and h/m MMP-2 inhibition. Five potential lead candidates were reformatted as IgGs and retested in enzyme inhibition assays.
(§3) Human MMP-9 (Biomol #SE-244), mouse MMP-9 (R&D Systems #909-MM-010), human MMP-2 (Biomol #SE-237) and mouse MMP-2 (R&D Systems #924-MP-010) were tested at final concentrations of 1 nM, 0.25-0.4 nM, 2.5 nM and 0.2 nM, respectively. Target enzymes were incubated with inhibitor for two hours at 30° C. in reaction buffer (50 mM Tris-HCl pH 7.5, 150 mM NaCl, 5 mM CaCl2, 0.05% Brij-35) in a total volume of 90 μL using a white 96 well plate (Costar). Reactions contained 5 μL of small-scale sFab stock solution (average concentration of 500 nM) for single point inhibition analysis or a concentration series of sFab/IgG for IC50 Ki,app determinations. Commercially available anti-MMP-9 antibodies (Millipore mAb 13415 and R&D Systems polyclonal IgG #AB911) were tested by IC50 analyses using 100 nM and 500 nM as the highest inhibitor concentrations, respectively. An anti-MMP-2 antibody (R&D Systems polyclonal IgG #AF902) was similarly tested with 200 nM as the highest inhibitor concentration. Reactions were initiated by the addition of 10 μL of a 10× concentrated stock of substrate, Mca-Lys-Pro-Leu-Gly-Leu-Dap(Dnp)-Ala-Arg-NH2, (Bachem M-2350), at final concentration of 10 μM and monitored at 30° C. in a Molecular Devices' Gemini fluorescence plate reader. The excitation and emission wavelengths were set at 328 nm and 393 nm, respectively. Kinetic data were acquired by the increase in fluorescence, and initial rates for each condition were plotted against the total inhibitor concentration. Reactions were performed in duplicates and all data replicates were plotted in a single graph and fit to the following equation^1:
(§4) Where A=initial rate observed at each inhibitor concentration; Ao=initial rate observed in the absence of inhibitor; Ainh=initial rate observed for the enzyme inhibitor complex; Inh=concentration of inhibitor; E=total enzyme concentration (treated as a floated parameter); and Ki,app=apparent equilibrium inhibition constant.

[5] = molecular target: T5, Mouse MMP-9 (Mus musculus, UniProt P41245); assay: as above; type: biochemical
T5 construct: purchased R&D Systems 909-MM (909-MM-010)
T5 sequence (P41245 108-730): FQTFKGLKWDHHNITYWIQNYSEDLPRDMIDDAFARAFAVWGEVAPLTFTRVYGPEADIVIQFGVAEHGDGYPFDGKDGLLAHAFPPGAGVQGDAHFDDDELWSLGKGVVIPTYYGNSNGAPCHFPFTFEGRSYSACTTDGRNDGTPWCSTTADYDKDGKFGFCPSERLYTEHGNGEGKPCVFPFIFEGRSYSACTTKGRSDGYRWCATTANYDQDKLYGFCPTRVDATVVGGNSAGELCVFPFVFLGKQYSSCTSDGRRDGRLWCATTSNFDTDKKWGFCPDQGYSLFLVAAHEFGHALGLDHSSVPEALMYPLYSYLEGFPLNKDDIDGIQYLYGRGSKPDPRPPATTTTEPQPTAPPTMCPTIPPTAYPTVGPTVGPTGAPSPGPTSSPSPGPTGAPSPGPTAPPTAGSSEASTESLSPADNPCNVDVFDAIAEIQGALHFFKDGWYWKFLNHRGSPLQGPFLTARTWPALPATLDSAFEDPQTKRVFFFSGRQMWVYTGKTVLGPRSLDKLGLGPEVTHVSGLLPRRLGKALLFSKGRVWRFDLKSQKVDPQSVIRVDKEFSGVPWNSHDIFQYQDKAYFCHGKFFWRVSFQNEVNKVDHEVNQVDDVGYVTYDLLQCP
Method: as §2, §3, §4

[6] = molecular target: T6, mouse MMP-2 (Mus musculus, UniProt P33434); assay: as above; type: biochemical
T6 construct: purchased R&D Systems 924-MP-010
T6 sequence (P33434 110-662): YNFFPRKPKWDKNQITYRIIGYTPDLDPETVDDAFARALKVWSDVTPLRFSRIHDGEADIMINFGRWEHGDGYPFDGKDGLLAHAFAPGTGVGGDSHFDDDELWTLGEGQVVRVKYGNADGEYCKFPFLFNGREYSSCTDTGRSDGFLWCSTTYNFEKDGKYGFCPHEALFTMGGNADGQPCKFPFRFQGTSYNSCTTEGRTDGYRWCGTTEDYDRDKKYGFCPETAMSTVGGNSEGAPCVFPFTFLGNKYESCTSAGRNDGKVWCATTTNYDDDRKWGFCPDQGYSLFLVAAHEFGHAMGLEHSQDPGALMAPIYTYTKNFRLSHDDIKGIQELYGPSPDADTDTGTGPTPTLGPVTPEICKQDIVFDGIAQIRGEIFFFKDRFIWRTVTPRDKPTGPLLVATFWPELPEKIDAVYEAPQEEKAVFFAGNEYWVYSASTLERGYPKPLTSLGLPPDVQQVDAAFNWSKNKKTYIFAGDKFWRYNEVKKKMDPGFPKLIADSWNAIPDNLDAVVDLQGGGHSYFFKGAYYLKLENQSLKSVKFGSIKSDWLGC
Method: as §2, §3, §4

[7] = molecular target: T1, Human MMP-9 catalytic domain; assay: Inhibition progress curves and kinetic analysis (kobs, kon, koff); type: biochemical; conditions: 25° C.; for kobs: substrate 9 μM
Method: The kinetics of the interaction between M0237-D02 and the human MMP-9 were determined. The rates were determined using the following equation: […]
The second order rate constant for the association of the enzyme E and the inhibitor I (kon) and the first order rate constant for the dissociation of the complex EI (koff) can be calculated from inhibition progress curves obtained at different inhibitor concentrations.
Materials: • Substrate: Mca-KPLGL-Dap(Dnp)-AR-NH2 (M-2350) from BACHEM (521575). A 10 mM stock solution was prepared in DMSO. • Human MMP-9 catalytic domain (BIOMOL, SE-244). • M0237-D02 hIgG1: 2517-068. • All measurements were performed at 25° C. in TCNB: 50 mM Tris/HCl, 10 mM CaCl2, 150 mM NaC10.05% Brij 35, pH 7.5. • 96-well black plates from Perkin Elmer (6005270) • Spectramax M2e to measure fluorescence emission of the substrate upon hydrolysis (λexc=328 nm and λem=393 nm)
The enzyme (at a final concentration ranging from 1.5 to 12.3 nM), the substrate (9 μM final) and the M0237-D02 antibody were mixed, and the fluorescence was immediately recorded in order to follow the hydrolysis of the substrate. The observed inhibition rate (kobs) was obtained by analyzing the progress curves with a single exponential. The value for kon and koff were calculated from the plot of the kobs vs. the antibody concentration using the following equation: […]

[8] = from plot of kobs vs. antibody concentration

T1 sequence (P14780 107-444 limits assumed): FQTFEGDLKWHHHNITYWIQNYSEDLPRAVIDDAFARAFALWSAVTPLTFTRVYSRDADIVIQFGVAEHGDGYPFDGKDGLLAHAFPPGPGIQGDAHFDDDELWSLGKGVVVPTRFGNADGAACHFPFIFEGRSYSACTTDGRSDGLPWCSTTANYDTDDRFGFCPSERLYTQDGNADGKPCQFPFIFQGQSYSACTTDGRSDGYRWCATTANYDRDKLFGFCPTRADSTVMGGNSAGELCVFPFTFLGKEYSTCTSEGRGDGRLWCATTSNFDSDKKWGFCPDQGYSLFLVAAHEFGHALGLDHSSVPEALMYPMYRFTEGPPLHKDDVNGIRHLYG

B1: M0237-D02: MMP-9/-2 dual reactive antibody inhibitor (parental); sFab and hIgG1 (antibody, V domains shown)
VH: EVQLLESGGGLVQPGGSLRLSCAASGFTFSQYPMWWVRQAPGKGLEWVSYIVPSGGRTYYADSVKGRFTISRDNSKNTLYLQMNSLRAEDTAVYYCAKDRAYGDYVGWNGFDYWGQGTLVTVSS
VL: DIQMTQSPATLSLSPGERATLSCRASQSISSFLAWYQQKPGQAPRLLIYDASYRATGIPARFSGSGSGTDFTLTISSLEPEDYAVYYCQQRGNWPITFGQGTRLEIK
[1]; Direct capture (amine coupling)
  binding of Cat-huMMP-9: No
[1]; Fc capture (anti-Fc antibody surface)
  binding of Cat-huMMP-9: could be observed
[1]; Fc capture (anti-Fc antibody surface), listed as 539A-M0237D02
  binding of Cat-huMMP-9: Yes
[2]
  binding of huTIMP-1: No
[3]; listed as 539A-M0237D02
  binding of Pro-huMMP-9: No
[3]; listed as M237-D02
  binding of Pro-huMMP-9: observed neither
[4]
  affinity for hMMP-2 (in words): high affinity
[5]
  affinity for mMMP-9 (in words): high affinity
[6]
  affinity for mMMP-2 (in words): low affinity
[6]; IgG, Table 12
  Ki: 76 nM
[7]; M0237-D02 concentration 14.4 nM
  kobs: 0.0013 s⁻¹
[7]; M0237-D02 concentration 19.2 nM
  kobs: 0.0019 s⁻¹
[7]; M0237-D02 concentration 28.8 nM
  kobs: 0.0024 s⁻¹
[7]; M0237-D02 concentration 115.2 nM
  kobs: 0.0086 s⁻¹
[7]; [8]
  koff: ~4 10^−4 s^−1
  kon: ~7 10^4 M^−1 s^−1
